B1: PTPRD (parent)
chain: PVVSMDLDPQPITDEEEGLIWVVG

Variants of: B1
Test: protein stability index of a GFP-peptide fusion (GPS, HEK-293T) (PSI 1-6); higher = more stable
Conditions: c terminus: a fixed tail appended
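Note: lentivirally expressed fusions sorted by FACS into six bins by GFP to DsRed ratio, PSI derived from sequencing read proportions per bin multiplied by bin number.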

Variant	protein stability index
PVVSMDLDPQPITLEEEGLIWVVG	2.06
PVVSMDLDPQPITYEEEGLIWVVG	2.27
PVVSMDLDPQPITSEEEGLIWVVG	4.05
PVVSMDLDPQPITAEEEGLIWVVG	2.58
PVVSMDLDPQPITEEEEGLIWVVG	3.78
PVVSMDLDPQPITIEEEGLIWVVG	4.15
PVVSMDLDPQPITMEEEGLIWVVG	2.36
PVVSMDLDPQPITREEEGLIWVVG	2.31
PVVSMDLDPQPITGEEEGLIWVVG	3.87
PVVSMDLDPQPITCEEEGLIWVVG	2.9
PVVSMDLDPQPITFEEEGLIWVVG	2.14
PVVSMDLDPQPITNEEEGLIWVVG	3.9
PVVSMDLDPQPITDEEEGLIWVMG	4.55
PVVSMDLDPQPITDEEEGLIWVNG	4.45
PVVSMDLDPQPITDEEEGLIWVLG	3.06
PVVSMDLDPQPITDEEEGLIWVRG	5.03
PVVSMDLDPQPITDEEEGLIWVYG	4.4
PVVSMDLDPQPITDEEEGLIWVAG	4.67
PVVSMDLDPQPITDEEEGLIWVDG	5.36
PVVSMDLDPQPITDEEEGLIWVCG	3.9
PVVSMDLDPQPITDEEEGLIWVTG	4.93
PVVSMDLDPQPITDEEEGLIWVPG	4.97
PVVSMDLDPQPITDEEEGLIWVSG	5.01
PVVSMDLDPQPITDEEEGLIWVGG	5.27

Variant	protein stability index
PVVSMDLDPQPITDEEEGLIWVHG	4.93
PVVSMDLDPQPIWDEEEGLIWVVG	2.47
PVVSMDLDPQPISDEEEGLIWVVG	3.13
PVVSMDLDPQPIYDEEEGLIWVVG	2.9
PVVSMDLDPQPIVDEEEGLIWVVG	3.58
PVVSMDLDPQPITDEEEGQIWVVG	3.66
PVVSMDLDPQPITDEEEGSIWVVG	4.21
PVVSMDLDPQPITDEEEGTIWVVG	4.91
PVVSMDLDPQPITDEEEGAIWVVG	4.6
PVVSMDLDPQPITDEEEGWIWVVG	3.37
PVVSMDLDPQPITDEEEGEIWVVG	4.54
PVVSMDLDPQPITDEEEGFIWVVG	3.65
PVVSMDLDPQPITDEEEGNIWVVG	4.57
PVVSMDLDPQPITDEEEGVIWVVG	3.56
PVVSMDLDPQPITDEEEGLIWQVG	4.63
PVVSMDLDPQPITDEEEGLIWEVG	5.47
PVVSMDLDPQPITDEEEGLIWGVG	4.92
PVVSMDLDPQPITDEEEGLIWHVG	4.85
PVVSMDLDPQPITDEEEGLIWCVG	3.9
PVVSMDLDPQPITDEEEGLIWDVG	5.28
PVVSMDLDPQPITDEEEGLIWFVG	2.54
PVVSMDLDPQPITDEEEGLIWNVG	4.37
PVVSMDLDPQPITDEEEGLIWKVG	4.57
PVVSMDLDPQPITDEEEGLIWYVG	5.12

Variant	protein stability index
PVVSMDLDPQPITDEEEGLIWLVG	3.94
PVVSMDLDPQPITDEEEGLIWRVG	3.89
PVVSMDLDPQPITDEEEGLIWWVG	3.79
PVVSMDLDPQPITDEEEGLIWTVG	4.26
PVVSMDLDPQPITDEEEGLIWSVG	4.7
PVVSMDLDPQPITDEEEGLIYVVG	4.1
PVVSMDLDPQPITDEEEGLIHVVG	5.47
PVVSMDLDPQPITDEEEGLIVVVG	4.27
PVVSMDLDPQPITDEEEGLIAVVG	6
PVVSMDLDPQPITDEEEGLIQVVG	5.18
PVVSMDLDPQPITDEEEGLICVVG	4.69
PVVSMDLDPQPITDEEEGLILVVG	3.33
PVVSMDLDPQPITDEEEGLISVVG	5.43
PVVSMDLDPQPITDEEEGLIIVVG	3.62
PVVSMDLDPQPITDEEEGLIFVVG	4.08
PVVSMDLDPQPITDEEEGLITVVG	4.69
PVVSMDLDPQPITDEEEGLIDVVG	5.06
PVVSMDLDPQPITDEESGLIWVVG	2.88
PVVSMDLDPQPITDEEKGLIWVVG	3.12
PVVSMDLDPQPITDEEYGLIWVVG	1.38
PVVSMDLDPQPITDEECGLIWVVG	2.25
PVVSMDLDPQPITDEELGLIWVVG	2.56
PVVSMDLDPQPITDEEQGLIWVVG	4.18
PVVSMDLDPQPITDEEVGLIWVVG	1.75

Variant	protein stability index
PVVSMDLDPQPITDEERGLIWVVG	2.75
PVVSMDLDPQPITDEEMGLIWVVG	1.69
PVVSMDLDPQPITDEEAGLIWVVG	2.26
PVVSMDLDPQPITDEEIGLIWVVG	1.8
PVVSMDLDPQPITDEEGGLIWVVG	3.34
PVVSMDLDPQPITDEEDGLIWVVG	4.26
PVVSMDLDPQPITDEEPGLIWVVG	2.38
PVVSMDLDPQPITDEENGLIWVVG	3.37
PVVSMDLDPQPITDEETGLIWVVG	3.31
PVVSMDLDPQPITDEEEGLIWVVY	3.09
PVVSMDLDPQPITDEEEGLIWVVL	1.51
PVVSMDLDPQPITDEEEGLIWVVM	2.87
PVVSMDLDPQPITDEEEGLIWVVF	1.34
PVVSMDLDPQPITDEEEGLIWVVQ	3.55
PVVSMDLDPQPITDEEEGLIWVVC	1.85
PVVSMDLDPQPITDEEEGLIWVVV	1.7
PVVSMDLDPQPITDEEEGLIWVVW	1.41
PVVSMDLDPQPITDEEEGLIWVVK	4.06
PVVSMDLDPQPITDEEEGLIWVVS	3.36
PVVSMDLDPQPITDEEEGLIWVVD	4.45
PVVSMDLDPQPITDEEEGLIWVVN	4.15
PVVSMDLDPQPITDEEEGLIWVVT	3.21

Source: the supplement of paper PMC10567573
